Assay results: the DeepSol protein solubility set

Assay: soluble on expression in E. coli; label from the status in PepcDB or PDB records
With “MSLADEMGYVPDRRAQKLRQASSRLLGVVFELQQPFHGDLVEQIYAAATRRGYDVMLSAVAPSRAEKVAVQALMRERCEAAILLGTRFDTDELGALADRVPALVVARASGLPGVGAVRGDDVAGITLAVDHLTELGHRNIAHIDGADAPGGADRRAGFLAAMDRHGLSASATVVTGGTTETEGAEGMHTLLEMPTPPTAVVAFNDRCATGVLDLLVRSGRDVPADISVVGYDDSRLARIPHVQMTTISQDATHMAEAAVDGALAQISGDKAVDLVLAPHLVRRATTGPVAHREGHHHHHH” the “soluble on expression in E. coli” value was “soluble”. With “MSLITLPKISLIGSNIAKEGLEFVFAGPLAACSDCRVKNVCFNLEQGHRYRVTKVREQVNPCIIFNGDKVNTVEVEELEDYVNVQESKRIQEGAIITLKSMNCDYITCPNIEKCNLYYFKPDSKVMVKSIGKEIKCPKGYKMKQVAITYKEGHHHHHH” the “soluble on expression in E. coli” value was “not soluble”. With “TEELHKIEDIIRIFNDCFSQEYNTRLAKGGDYPIYLPAYRAENNTPSDRPYHVILFAHGYYSSALHEIAHWLVAGTARRQLEDFGYWYEPDGRSAEQQREFETVEVKPQAIEWILATAADFRYFASADNLSGNAGDNSAFKQAVYQQVKIYANRGYLPKRAEKLRQALAKFYGTTDQINLANFEIT” the “soluble on expression in E. coli” value was “not soluble”. In the case of “MNNLMPAELAPQINAHFNGKFEVELKYRLADREAFWARLSAKSPEVMLEDNLEHDCYFDSPSASLAAQHKSLCIREMQPSGIRLWIVKGPEKDRCEAVNITDANKAKSMLRTLGYQCVLEIKKRRSVYFLGQFHLTLDRLEGLGDFAELAIMTDDEAMLPVYEAQLVALAAELGLNESQREFLSYRQLQQALQQLEHHHHHH”, the “soluble on expression in E. coli” value was “not soluble”. With “MGSDKIHHHHHHMSEQELSQLSGGMDDAAPCPWLKVEVHPAGDRQVVVAYGDIDVDTEAILQRALREALDHSVSGVNLDLGAVGFCDCAGLNVLLRMRRHALAHGKTLAVQATGPATGKLLTITGTLSLFDVTAGPGTRAKGRNPLPPEPHDPSRVDHIDGTGRGRDGTDLETDGTIDGTVVDLRIEVGQLRRAMQTRPVIDLARGVLMASFGLSAEDAWTVLVTVSQHTNTKLHQIAEDLVNTVQGAPLPEPLQRQLAEAVMPFSRVRNAGA” the “soluble on expression in E. coli” value was “not soluble”. In the case of “MSLSKTLSMLALLPFAAQVFAAPAEFWYSHGGATGSAIADLCRSFNAQREDGDRLHCIRQGSYEQTLQKTVAAYRAGIGPALVEIYDVATPDMLLGGATLPVEAIMAGHQRAYSDDTFLPALRRYYSDDHGALAAQPFAASTAVLYTHRNALAAAGISEPPATWEAFATALRALKKNGHACPVVSEFSPWIWLEQTSAAQGTEVAVRAAGTERYQFDKGAHLRLMNDLAQWTAEGLVVHEDSTRSGQQALAFATDDCAMLIDSTGAWNIVHSTLKSDIDVTALPIYANTQRRTNAPGGSSLWVMRGHAARDYRLVSEFLAFVLQPDNQLVFSARTGYLPVTQAAAARLQSAGREPSAVMVGLAALHDIDGQPSKPLRCGFITLMRLVWSQEMENALAGRQSVEHALRQTTLRANELLSLFQQMHQAQASNESDGATEGHHHHHH”, the “soluble on expression in E. coli” value was “soluble”. With “MGSDKIHHHHHHMMRENLAYLEPPLRIAILSQGPQLYSTKRLVEAAQARGHDVHIINPLKCYMNINMRQPSIHIAGKELPQFDAVIPRIGASITFYGSAVLRQFEMMGVYTINDSVGISRSRDKLRSMQLLSRKGIGLPITGFANKPSDIPDLIDMVGGAPLVVKLLEGTQGIGVVLAETRKAAESVLEAFMGLKANIMVQEYIKEANGADIRCFVLGDKVIAAMKRQAKAGEFRSNLHRGGTATLVKLSPEERTTAIRAAKTMGLSLAGVDLLRSNHGPVVMEVNSSPGLEGIEAATQKDVANAIIEFIEKNANKAKS” the “soluble on expression in E. coli” value was “not soluble”. With “MLSAFFKTAHCALRNMPIQTDLVGKWNFVSSENFDEYLKEVGVGWAIRTIATKTKPALEFAVNGDEWTMNSNSTFKNYTLKWKLGTASDEKTADGRDVSSVFSIENDHLVQIETGKGGGKDSRIERYIENGKLVIVCTCNGVKCTRVYEKAA” the “soluble on expression in E. coli” value was “not soluble”. For “MEFYMKAFNKLFSLVVASVLVFSLAGCGDKEESKKFSANLNGTEIAITYVYKGDKVLKQSSETKIQFASIGATTKEDAAKTLEPLSAKYKNIAGVEEKLTYTDTYAQENVTIDMEKVDFKALQGISGINVSAEDAKKGITMAQMELVMKAAGFKEVK”, the “soluble on expression in E. coli” value was “not soluble”. For “MHHHHHHMTSVMSHEFQLATAETWPNPWPMYRALRDHDPVHHVVPPQRPEYDYYVLSRHADVWSAARDHQTFSSAQGLTVNYGELEMIGLHDTPPMVMQDPPVHTEFRKLVSRGFTPRQVETVEPTVRKFVVERLEKLRANGGGDIVTELFKPLPSMVVAHYLGVPEEDWTQFDGWTQAIVAANAVDGATTGALDAVGSMMAYFTGLIERRRTEPADDAISHLVAAGVGADGDTAGTLSILAFTFTMVTGGNDTVTGMLGGSMPLLHRRPDQRRLLLDDPEGIPDAVEELLRLTSPVQGLARTTTRDVTIGDTTIPAGRRVLLLYGSANRDERQYGPDAAELDVTRCPRNILTFSHGAHHCLGAAAARMQCRVALTELLARCPDFEVAESRIVWSGGSYVRRPLSVPFRVTSSR”, the “soluble on expression in E. coli” value was “soluble”. In the case of “YDNLAHNLAVERGLTAGVLGSQGKTEIVQKLTQQRKKVDDAVNSLVQLNTPLISSSDSYDLLQDVQVQLNRLNQVRQGVDRLSPQIAPFGYYSNLNQLIIDNIDILIAQTQSRELGTLGDALISVIVMKERAGQARGALNGVFAKGSATSVLFSNIEGYIQSGDYASRKAQIAFPEQYRQSLQSHQSNPAWKKVEQVQQSFLNQSANLDNIQGPQATEWFPMATERIGLMNQLRNQMVDQMLSAA”, the “soluble on expression in E. coli” value was “not soluble”. In the case of “MKRYRTLLFDVDDTILDFQAAEALALRLLFEDQNIPLTNDMKAQYKTINQGLWRAFEEGKMTRDEVVNTRFSALLKEYGYEADGALLEQKYRRFLEEGHQLIDGAFDLISNLQQQFDLYIVTNGVSHTQYKRLRDSGLFPFFKDIFVSEDTGFQKPMKEYFNYVFERIPQFSAEHTLIIGDSLTADIKGGQLAGLDTCWMNPDMKPNVPEIIPTYEIRKLEELYHILN”, the “soluble on expression in E. coli” value was “not soluble”. For “MGSDKIHHHHHHMPDAAGGVRVPHPPRPFDRPDRPAARLCRTQQLHPRVPPLERHLAPRLAGTAEPDRALKPQDKSLSKADPMTRLLLLEGNTADKRARGRELGVRSSSEIYAQAIAAHFPRIELDVLNGADEGEAIPHDRSWADYDGFVVTGSSLHAYDREFAVTNQIALVAQAAEHGLPIFGSCWGLQIAVMAAGGEVAYNPRGREVGFARKIALNDAGRAHPMFGAKQHVFDAPCIHYDEVVRMPDGATLLASNGHSLVQAAVIPLGQSEVWAVQYHPEFDLAQLVQLYTLYAADMIAQGFFSNEAELVAYRDKIARLAQDPTDAGLAWQLGIDADVLDPRQRAAEIIAWIESRVLNGT”, the “soluble on expression in E. coli” value was “not soluble”. With “MNSQTTKDIPCFRSYLPDALRLRFEDKLTIRAIAQRLGLSHSTIHTLFQRFLASGIAWPLPDSVSFAQLDAILYANRKKELTEPQIREGSWRKERRTSYSREFKVRLAKQALQPGAVVARIAREHDINDNLLFKWKSQYEDGLLSDDDIQECMPVPVALTDTPEPTRPVTNPFWRNKHDERPEGAPGNVPRCELHLKSGVVKLFDPLTPELLRALIREMKGGIRLEHHHHHH” the “soluble on expression in E. coli” value was “soluble”. With “SSGSKSSNSSAKKSAGKPQQGGDLVVGSIGEPTLFNSLYSTDDASTDIENMLYSFLTKTDEKLNVKLSLAESIKELDGGLAYDVKIKKGVKFHDGKELTADDVVFTYSVPLSKDYKGERGSTYEMLKSVEKKGDYEVLFKLKYKDGNFYNNALDSTAILPKHILGNVPIADLEENEFNRKKPIGSGPFKFKEWKQGQYIKLEANDDYFEGRPYLDTVTYKVIPDANAAEAQLQAGDINFFNVPATDYKTAEKFNNLKIVTDLALSYVYIGWNEKNELFKDKKVRQALTTALDRESIVSQVLDGDGEVAYIPESPLSWNYPKDIDVPKFEYNEKKAKQMLAEAGWKDTNGDGILDKDGKKFSFTLKTNQGNKVREDIAVVVQEQLKKIGIEVKTQIVEWSALVEQMNPPNWDFDAMVMGWSLSTFPDQYDIFHSSQIKKGLNYVWYKNAEADKLMKDAKSISDRKQYSKEYEQIYQKIAEDQPYTFLYYPNNHMAMPENLEGYKYHPKRDLYNIEKWWLAK” the “soluble on expression in E. coli” value was “soluble”. With “MNSAPLLVDPSTQSATVVAETQPFGDRCMLESLIRRPFCMNPQLQTHPYDRQPTTAPRLQMMPRRDQTQNPVIAELMSTVTRVRDRKRQRDEEAMYPRRSVGLQTDTEDVSEVLDGGTRISDMKRVRREELLDQSSLDGITFETSGTNTSDEPHSQIITSNSSSLPSTSASSSSDRPRAMRSNQEMRQARRARRQRQTQHESQRMQLEHRLQQITGPVPGSEHNCMTGCPHLHQQQQQQHQQPLLHIQLNPIPPQPQTGPNSVSPTIAPGAMLRAHPLASTFPYFSLPLTQNYPVMMVLPMAAVAQQHAAAAAAVVAVAAAAAVPQPPPPPPQPTLHAPVPIRPQNNPYNLYAFRNSPINVHAPGYVGEYVELFRSQQFLFPTSERYGIDRHHMFGGLDLDLPVGASKVEIDTFTIPTVYAKKTDGEEDEDTCTVCLSSFEDGESIQKLRCNHVFHPECIYKWLDINKRCPMCREEIDRPESLRTQPGL” the “soluble on expression in E. coli” value was “not soluble”. With “AEAAPCETADGTYHIALPEAENPPVLIFLHGHGGEGAATLRNARLVAPLLARGWAVIAPDGQSRAPGRPRSWTFFPGWEGRDEPAFLAQVLGEASARFGLDADRAVLGGFSAGAFMVTYLACATPGAYRAYVPVSGGFWRPQPDRCAGPVHLFQTHGWADPVVPLEGRFLGGGRFQQGDIFAGLELWRQTNGCVEHKPDGFDQTGPFLRRRWQGCSGGSLEFALFPGGHTVPEGWADMMADWVEAL” the “soluble on expression in E. coli” value was “not soluble”. With “MGSDKIHHHHHHMRGGNIKAIVYLPLDPEKAKQNNLPVKLPVLAEDLPKVLEEDRIPLDVILRGLEAQYEITKDEYYRSYYVFFLYEKFKQLLREGKLDEAEKILEKAKEVQYDYRYHFYRGLLLKHRGELGEAEIEMRLAISMNDRFAPAYFELAGILKEKNEIEDSLLFYEKAYEVNKEFLLPLLKKGDLLLEEGRLEEAIEEYRRILEKDSNFVEVYERLGVIYNQLQRFKEAEKFFKKALEIERKDHVEYNLSYTLIKLGKLFEALEILKRLYEKNPDDPMVANEYGLLLKTLGLYEEALEVFEDAYRRHKEEEILKYNYGTILLHFEKEKAVSILSEISGELKDRAEFMISLAEKDVVIPSYEEFEWLKDYFFEGTIDVVALSEEIDSEDEDAKRRIERLREGEFPFYDTTLDSSEMLEVILGIMFESPDIFKMEENAVKFVSAFYGSSVMIASTIVLTRTFQYFLAEEEPTMEELLRELVAETQDVNWKFSLRLARFRHADRFDFNRLSDLVIAFLQSIEQGTPVSDDERLKYLLEKLTFQKEG” the “soluble on expression in E. coli” value was “not soluble”. With “MAHHHHHHMGKVKKQANHAIKKILMKEKSLAMKKKREAESYHETPESNTTTQATKDYAAVLFRKALVTQAAPTRTAHFLSYNTALGPPYRIWLDTNFINFSMQNKIDIVQGLMDCLLAKVIPCICDCVFAELEKLGKKFRIALKLARDKRFERLTCDSKYADDCVVRTVTQHPIYIVATCDQELKRRLRKVPGVPIMYIAKHRYTIERLPEAYGAPE” the “soluble on expression in E. coli” value was “not soluble”. With “MAHHHHHHMGNTTDPGAAPLHSSGFFKISARFPKAAVAASGAGPSLKRRRAEAFVVGDDGVPTLRTTAIAPGEQVGGDGTAEPFEFFKAQQDAFMNDIEGIKDAQLQRFNRKARRIMKSRRAWASSSSSGRHANSQQHSSSSGTHVTGSGALSKTGAKKTKPKRY” the “soluble on expression in E. coli” value was “soluble”.
